Data as given in US20250195679A1, “ANTIBODY-DRUG CONJUGATE AND USE THEREOF” (SHANGHAI HUAOTA BIOPHARMACEUTICAL CO., LTD., priority 2022, published 2025).

T1: CD73 on the cell surface of Calu6 cells (Homo sapiens, UniProt P21589)
T1 construct: endogenous in cells; host or cells: Calu6
T1 sequence (P21589 27-549): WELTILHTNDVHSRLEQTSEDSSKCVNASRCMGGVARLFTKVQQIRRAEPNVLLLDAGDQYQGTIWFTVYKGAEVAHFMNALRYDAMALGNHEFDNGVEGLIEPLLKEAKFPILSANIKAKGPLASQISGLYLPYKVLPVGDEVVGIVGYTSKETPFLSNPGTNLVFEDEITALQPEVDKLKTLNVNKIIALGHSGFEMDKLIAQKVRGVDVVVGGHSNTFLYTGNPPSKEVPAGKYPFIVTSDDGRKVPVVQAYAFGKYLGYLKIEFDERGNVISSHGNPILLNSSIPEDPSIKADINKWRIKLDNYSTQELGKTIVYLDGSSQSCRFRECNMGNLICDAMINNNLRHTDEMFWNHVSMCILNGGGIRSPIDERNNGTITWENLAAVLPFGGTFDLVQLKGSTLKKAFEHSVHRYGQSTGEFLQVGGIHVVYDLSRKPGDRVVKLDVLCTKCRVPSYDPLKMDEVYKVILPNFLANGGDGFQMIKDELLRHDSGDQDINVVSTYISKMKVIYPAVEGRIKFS

B1: Antibody-drug conjugate 1: 900698 antibody cysteine-conjugated to SN-38 via Mc-VC-PAB-DMEDA-PEG linker, DAR about 7.8 (conjugate)
VH: QVQLVESGGGLVKPGGSLRLSCAASGFTFSKYAMSWIRQAPGKGLEWVAEISSGGGYINYADSVKGRFTISRDNAKNSLYLQMNSLRAEDTAVYYCARAIYYYGSSYNYYAMDYWGQGTTVTVSS
VL: DIQMTQSPSSLSASVGDRVTITCRASQDVGTAEAWYQQKPGKAPKLLIYWASTRHTGVPSRFSGSGSGTDFTLTISSLQPEDFATYYCQQYSSYPLTFGQGTKLEIK
B2: Antibody-drug conjugate 2: 900698 antibody cysteine-conjugated to SN-38 via MP2-VC-PAB-DMEDA-PEG linker, DAR about 7.8 (conjugate)
VH: B1 VH
VL: B1 VL

Target: T1, CD73 on the cell surface of Calu6 cells
Test: Induction of endocytosis of CD73 antigen on cell surface (Calu6 cells, flow cytometry)
Type: cell-based
Details: Example 5, 1 μg/mL, 5 h, 37° C. vs 4° C.
Method: The antibody-drug conjugate 1 and the antibody-drug conjugate 2 prepared in Example 1 and the 900698 naked antibody were diluted to 1 μg/mL with a PBS solution, with 2 replicate wells set up for each concentration. Calu6 cells in the logarithmic growth phase were taken and prepared into a cell suspension at 2×10^5 cells/mL. The cell suspension was then added at 100 μL (about 20000 cells) per well to a 96-well U-bottom plate and centrifuged at 300 g for 3 min, and then the supernatant was discarded. Then, the diluted antigen-binding proteins were each added at 100 μL/well to resuspend the cells, and the mixture was mixed uniformly and incubated at 4° C. for 30 min. […] After the incubation was completed, the cells were washed twice and centrifuged at 300 g for 3 min, and the fluorescence intensity was detected by flow cytometry.
The endocytosis efficiency of monoclonal antibodies 900698 and 900725 was compared through an endocytosis assay, with the procedures as follows: Anti-CD73 antigen-binding proteins such as the CD73 positive control antibody BMS-986179, 900698, and 900725 were diluted to 1 μg/mL with a PBS solution, with 2 replicate wells set up for each concentration. […] After the incubation was completed, the cells were washed twice and centrifuged at 300 g for 3 min, and the fluorescence intensity was detected by flow cytometry. […]

Molecule | Endocytosis efficiency (%)
B1 | about 95%
B2 | about 95%
